In patent EP0999853B1:

Target: recombinant preparation of soluble MAC-1 (UniProt P11215)
Assay: MAC-1 capture ELISA over total F(ab')2 ELISA; 5 weeks of storage, all formulations F1-F5

- loss of specific activity at 40°C relative to -70°C: 10 to 15%
Substance: recombinant humanized anti-CD18 antibody (rhuMAb CD18)
